Assay results reported in the supplement of paper PMC11246515.
± gives the standard deviation of the averaged measurements.

Assay: total protein half-life in vivo (active degradation + dilution); higher = more stable protein
[1] = E. coli NCM3722 delta-clpP delta-lon delta-hslV, growth: N-lim chemostat, doubling time 6 h
[2] = E. coli NCM3722 delta-clpP, growth: N-lim chemostat, doubling time 6 h
[3] = E. coli NCM3722 delta-hslV, growth: N-lim chemostat, doubling time 6 h
[4] = E. coli NCM3722 delta-lon, growth: N-lim chemostat, doubling time 6 h
[5] = E. coli NCM3722 delta-smpB, growth: N-lim chemostat, doubling time 6 h
[6] = wild type E. coli NCM3722, growth: C-lim chemostat, doubling time 3 h
[7] = wild type E. coli NCM3722, growth: C-lim chemostat, doubling time 6 h
[8] = wild type E. coli NCM3722, growth: C-lim chemostat, doubling time 12 h
[9] = wild type E. coli NCM3722, growth: N-lim chemostat, doubling time 6 h
[10] = wild type E. coli NCM3722, growth: N-lim chemostat, doubling time 12 h
[11] = wild type E. coli NCM3722, growth: P-lim chemostat, doubling time 6 h
[12] = wild type E. coli NCM3722, growth: P-lim chemostat, doubling time 12 h

Sequence | total protein half-life in vivo [1] [h] | total protein half-life in vivo [2] [h] | total protein half-life in vivo [3] [h] | total protein half-life in vivo [4] [h] | total protein half-life in vivo [5] [h] | total protein half-life in vivo [6] [h] | total protein half-life in vivo [7] [h] | total protein half-life in vivo [8] [h] | total protein half-life in vivo [9] [h] | total protein half-life in vivo [10] [h] | total protein half-life in vivo [11] [h] | total protein half-life in vivo [12] [h]
MGTTTMGVKLDDATRERIKSAATRIDRTPHWLIKQAIFSYLEQLENSDTLPELPALLSGAANESDEAPTPAEEPHQPFLDFAEQILPQSVSRAAITAAYRRPETEAVSMLLEQARLPQPVAEQAHKLAYQLADKLRNQKNASGRAGMVQGLLQEFSLSSQEGVALMCLAEALLRIPDKATRDALIRDKISNGNWQSHIGRSPSLFVNAATWGLLFTGKLVSTHNEASLSRSLNRIIGKSGEPLIRKGVDMAMRLMGEQFVTGETIAEALANARKLEEKGFRYSYDMLGEAALTAADAQAYMVSYQQAIHAIGKASNGRGIYEGPGISIKLSALHPRYSRAQYDRVMEELYPRLKSLTLLARQYDIGINIDAEESDRLEISLDLLEKLCFEPELAGWNGIGFVIQAYQKRCPLVIDYLIDLATRSRRRLMIRLVKGAYWDSEIKRAQMDGLEGYPVYTRKVYTDVSYLACAKKLLAVPNLIYPQFATHNAHTLAAIYQLAGQNYYPGQYEFQCLHGMGEPLYEQVTGKVADGKLNRPCRIYAPVGTHETLLAYLVRRLLENGANTSFVNRIADTSLPLDELVADPVTAVEKLAQQEGQTGLPHPKIPLPRDLYGHGRDNSAGLDLANEHRLASLSSALLNSALQKWQALPMLEQPVAAGEMSPVINPAEPKDIVGYVREATPREVEQALESAVNNAPIWFATPPAERAAILHRAAVLMESQMQQLIGILVREAGKTFSNAIAEVREAVDFLHYYAGQVRDDFANETHRPLGPVVCISPWNFPLAIFTGQIAAALAAGNSVLAKPAEQTPLIAAQGIAILLEAGVPPGVVQLLPGRGETVGAQLTGDDRVRGVMFTGSTEVATLLQRNIASRLDAQGRPIPLIAETGGMNAMIVDSSALTEQVVVDVLASAFDSAGQRCSALRVLCLQDEIADHTLKMLRGAMAECRMGNPGRLTTDIGPVIDSEAKANIERHIQTMRSKGRPVFQAVRENSEDAREWQSGTFVAPTLIELDDFAELQKEVFGPVLHVVRYNRNQLPELIEQINASGYGLTLGVHTRIDETIAQVTGSAHVGNLYVNRNMVGAVVGVQPFGGEGLSGTGPKAGGPLYLYRLLANRPESALAVTLARQDAKYPVDAQLKAALTQPLNALREWAANRPELQALCTQYGELAQAGTQRLLPGPTGERNTWTLLPRERVLCIADDEQDALTQLAAVLAVGSQVLWPDDALHRQLVKALPSAVSERIQLAKAENITAQPFDAVIFHGDSDQLRALCEAVAARDGTIVSVQGFARGESNILLERLYIERSLSVNTAAAGGNASLMTIG | 5.93 ± 0.7 | 5.68 ± 0.72 | 2.39 ± 0.14 | 2.81 ± 0.3 | 2.34 ± 0.047 | 2.08 ± 0.093 | 3.5 ± 0.57 | 4.276 ± 0.022 | 2.64 ± 0.23 | 3.8 ± 0.28 | 2.46 ± 0.32 | 4.246 ± 0.04
MKDKVYKRPVSILVVIYAQDTKRVLMLQRRDDPDFWQSVTGSVEEGETAPQAAMREVKEEVTIDVVAEQLTLIDCQRTVEFEIFSHLRHRYAPGVTRNTESWFCLALPHERQIVFTEHLAYKWLDAPAAAALTKSWSNRQAIEQFVINAA [P0AFC0] | 3.93 | > 8 | – | 3.07 | 2.07 | – | > 8 | 4.68 ± 0.41 | 2.22 ± 0.26 | 3.45 | 2.75 ± 0.2 | –
MTMNSFERRNKIIQLVNEQGTVLVQDLAGVFAASEATIRADLRFLEQKGVVTRFHGGAAKIMSGNSETETQEVGFKERFQLASAPKNRIAQAAVKMIHEGMTDPTHVIWTQA | 5.66 ± 0.27 | 5.64 ± 0.21 | 5.7 ± 0.13 | 5.59 ± 0.61 | 6.1 ± 0.52 | 2.9 ± 0.17 | 5.62 ± 0.3 | 12.4 ± 2.1 | 5.69 ± 0.26 | 11.3 ± 1.8 | 5.95 ± 0.17 | 11.5 ± 0.23
MPPRALLLVDLQNDFCAGGALAVPEGDSTVDVANRLIDWCQSRGEAVIASQDWHPANHGSFASQHGVEPYTPGQLDGLPQTFWPDHCVQNSEGAQLHPLLHQKAIAAVFHKGENPLVDSYSAFFDNGRRQKTSLDDWLRDHEIDELIVMGLATDYCVKFTVLDALQLGYKVNVITDGCRGVNIQPQDSAHAFMEMSAAGATLYTLADWEETQG | 4.67 ± 0.11 | 3.93 ± 0.17 | – | 4.52 ± 1.1 | 3.78 ± 0.19 | 3.05 ± 0.12 | 6.27 ± 1.3 | 10.1 ± 0.99 | 4.16 ± 0.32 | 6.53 | 4.76 | 11.1 ± 0.22
MRHPLVMGNWKLNGSRHMVHELVSNLRKELAGVAGCAVAIAPPEMYIDMAKREAEGSHIMLGAQNVDLNLSGAFTGETSAAMLKDIGAQYIIIGHSERRTYHKESDELIAKKFAVLKEQGLTPVLCIGETEAENEAGKTEEVCARQIDAVLKTQGAAAFEGAVIAYEPVWAIGTGKSATPAQAQAVHKFIRDHIAKVDANIAEQVIIQYGGSVNASNAAELFAQPDIDGALVGGASLKADAFAVIVKAAEAAKQA [P0A858] | 5.91 ± 0.91 | 5.22 ± 0.98 | 4.718 ± 0.03 | 5.61 ± 0.81 | 4.59 ± 0.26 | 3.057 ± 0.024 | 5.92 ± 0.066 | 10.6 ± 0.24 | 4.75 ± 0.24 | 8.33 ± 0.46 | 5.79 ± 0.17 | 13.1 ± 0.81
MTRLASRFGAANLIRRDRPLTREELFRVVPSVFSEDKHESRSERYTYIPTISLLDSLQREGFQPFFACQTRVRDPGRREHTKHMLRLRREGQITGKQVPEIILLNSHDGTSSYQMLPGLFRAVCQNGLVCGESFGEVRVPHKGDVVSQVIEGAYEVLGIFDRVEEKRDAMQSLLLPPPAQQALAKAALTYRFGEDHQPVTESQILSPRRWQDESNDLWTTYQRIQENLIKGGLSGRNAKGGRSHTRAVRGIDGDVKLNRALWVMAEALLTQLQ | 5.7 ± 0.74 | – | – | – | – | – | 3.1 | – | 4.67 | – | 3.42 | –
MVSRKRNSVIYRFASLLLVLMLSACSALQGTPQPAPPVTDHPQEIRRDQTQGLQRIGSVSTMVRGSPDDALAEIKAKAVAAKADYYVVVMVDETIVTGQWYSQAILYRK | 5.47 ± 0.3 | 6.25 ± 1 | 7.06 | 6.07 ± 0.52 | 5.58 ± 0.19 | 3.29 ± 0.23 | – | 11.6 ± 1.4 | 6.049 ± 0.053 | – | 7.24 ± 1.1 | 14.8
MKKLALILFMGTLVSFYADAGRKPCSGSKGGISHCTAGGKFVCNDGSISASKKTCTN [P0ACW4] | – | – | – | – | – | 0.862 | 4.49 | 4.67 | – | – | – | –
MINVQNVSKTFILHQQNGVRLPVLNRASLTVNAGECVVLHGHSGSGKSTLLRSLYANYLPDEGQIQIKHGDEWVDLVTAPARKVVEIRKTTVGWVSQFLRVIPRISALEVVMQPLLDTGVPREACAAKAARLLTRLNVPERLWHLAPSTFSGGEQQRVNIARGFIVDYPILLLDEPTASLDAKNSAAVVELIREAKTRGAAIVGIFHDEAVRNDVADRLHPMGASS | – | – | – | – | – | – | – | – | – | – | 0.0732 | 0.788 ± 0.69
MMNDGKQQSTFLFHDYETFGTHPALDRPAQFAAIRTDSEFNVIGEPEVFYCKPADDYLPQPGAVLITGITPQEARAKGENEAAFAARIHSLFTVPKTCILGYNNVRFDDEVTRNIFYRNFYDPYAWSWQHDNSRWDLLDVMRACYALRPEGINWPENDDGLPSFRLEHLTKANGIEHSNAHDAMADVYATIAMAKLVKTRQPRLFDYLFTHRNKHKLMALIDVPQMKPLVHVSGMFGAWRGNTSWVAPLAWHPENRNAVIMVDLAGDISPLLELDSDTLRERLYTAKTDLGDNAAVPVKLVHINKCPVLAQANTLRPEDADRLGINRQHCLDNLKILRENPQVREKVVAIFAEAEPFTPSDNVDAQLYNGFFSDADRAAMKIVLETEPRNLPALDITFVDKRIEKLLFNYRARNFPGTLDYAEQQRWLEHRRQVFTPEFLQGYADELQMLVQQYADDKEKVALLKALWQYAEEIV | 5.14 ± 0.17 | 4.99 ± 0.24 | 4.41 ± 0.22 | – | 3.9722 ± 0.0028 | 3.12 ± 0.044 | 5.87 ± 0.28 | 9.97 ± 1.4 | 4.297 ± 0.027 | 6.577 ± 0.033 | 6.73 ± 0.97 | 12.3 ± 0.74
MSEKYIVTWDMLQIHARKLASRLMPSEQWKGIIAVSRGGLVPGALLARELGIRHVDTVCISSYDHDNQRELKVLKRAEGDGEGFIVIDDLVDTGGTAVAIREMYPKAHFVTIFAKPAGRPLVDDYVVDIPQDTWIEQPWDMGVVFVPPISGR [P0A9M5] | 4.63 ± 0.2 | 3.87 ± 0.29 | 4.153 ± 0.02 | 4.37 ± 0.52 | 4.28 ± 0.093 | 3 ± 0.046 | 5.55 ± 0.23 | 9.92 ± 0.83 | 4.16 ± 0.19 | 6.73 ± 0.53 | 6.07 ± 0.34 | 13.99 ± 0.054
MFKNAFANLQKVGKSLMLPVSVLPIAGILLGVGSANFSWLPAVVSHVMAEAGGSVFANMPLIFAIGVALGFTNNDGVSALAAVVAYGIMVKTMAVVAPLVLHLPAEEIASKHLADTGVLGGIISGAIAAYMFNRFYRIKLPEYLGFFAGKRFVPIISGLAAIFTGVVLSFIWPPIGSAIQTFSQWAAYQNPVVAFGIYGFIERCLVPFGLHHIWNVPFQMQIGEYTNAAGQVFHGDIPRYMAGDPTAGKLSGGFLFKMYGLPAAAIAIWHSAKPENRAKVGGIMISAALTSFLTGITEPIEFSFMFVAPILYIIHAILAGLAFPICILLGMRDGTSFSHGLIDFIVLSGNSSKLWLFPIVGIGYAIVYYTIFRVLIKALDLKTPGREDATEDAKATGTSEMAPALVAAFGGKENITNLDACITRLRVSVADVSKVDQAGLKKLGAAGVVVAGSGVQAIFGTKSDNLKTEMDEYIRNH | 6.96 ± 0.44 | 6.21 ± 0.099 | 6.68 ± 1.2 | 6.75 ± 0.38 | 6.19 ± 0.17 | 3.54 ± 0.097 | 6.88 ± 0.64 | 13.4 ± 2.5 | 5.92 ± 0.44 | 11.8 ± 0.38 | 5.86 ± 0.2 | 11.7 ± 1.6
